According to the DeepSol protein solubility set:

Test: soluble on expression in E. coli; label from the status in PepcDB or PDB records

Sequence	soluble on expression in E. coli
MNYNIRGENIEVTPALKDHVERKIGKLERYFDHSVDADVNVNLKFYNDKESKVEVTIPMTDLALRSEVHNEDMYNAIDLATNKLERQIRKHKTKVNRKFREQGSPKYLLANGLGSDTDIAVQDDIEEEESLDIVRQKRFNLKPMDSEEAILQMNMLGHNFFVFTNAETNLTNVVYRRNDGKYGLIEPTELEHHHHHH	soluble
MTESNGNSEITTTEGNTGPVVESSLDPLAGRPEQSEDDIAKASDVEEYLRDVIDPELGINVVDLGLVYDIWMEGSIHAHVNMTLTSPACPLTDVIEDQAESAVVGNKVAETLTIHWVWMPPWGPHMITEDGREQLRALGFSV	not soluble
MSLRHVIREVRADLIASPVQTGFQDATRKVETVGMCVIRVNTDQGLTGIGVTYHEVGGEAIKEMIERYYGPKLIGRDPFETEEIWEELFHYARGVGRKGLSFCALSAVDIALWDLKGKIMDLPLYRLLGGNKKKVPVYASGGWTSYDDDALVAEALEMVRRGYKMIKLKVGVEGGRNIRRDTQRCRKVREAIGPDIGFMVDANNAFHSGDAVRLANEIREYDILFFEEPVFADDIPGLRRFRQGTDIPLGTGEHEYTRYGARDLILGEAVDYLQMDVTRCGGITEMLKVIALSQAWNLAFAPHAMEHIHMHLVSAAANGAFLERLFLFEDITAMVFKDAPVPEEGILTIPDKPGLGLELNSEFLREGHHHHHH	soluble
MGSDKIHHHHHHMKVLVVDNSRWWGGAEKNLQTLVDNRSNAIEFNVLSDYPMSHNITYRDFCGVRYRFDNSYFIRYLDNKYQIKGMRIFRLIYKSLYLIPSLVRYNPDIVHFNLYRSSDILDIIVCKILRKKVVLHIRSLANRIKIAPLTIKLADAVICVSKSVKQGFSFTGNKYHVIYNGIDSKYYHLVPQDQAREKLGINLTSFVIGSIGNLEREKGHDVAVKALKKIIDDGNVVVALIIVGKDSTINESETKRILTLSKDLGVQGHIKIFSISHKDIHYVYSACDIVLTLCIDGEAFGMIPLEAAMHNRPVIATNVGACRETIIHNQTGLLCEPNSPVALVQAIDTIMKDKKYCDQLTESARNRVLHKYSADAYRDSVYKIYITITKENKRKL	not soluble
MAHHHHHHMQSVLPYTTNPAQIGSIEKLKLINPSSAAATGPYVNVRDPKLVVGGLLHNWDAEAAHALLNAPKSVQTWDLSWTEDETNWEERVHRCTYPEEVEDLLPAKWIGYRVQSDVDETLARVCKLCTALVDRLVSLSQGNNANVSTAKWRQRQALYDRLGAVMELLEASVGEAIPILKLKDPEFIQNCWRQMQDDERVEIISVLGTKEYD	soluble
MSRDGQNGTATFYFDEPQALVGEVRQDITGMYLLDDEGELATREVKAKFINGQPAGLEAVYLMRSPEEWDRFMRFMQRYAEANGLGFTEALEHHHHHH	not soluble
HHHHHHSSGLVPRGSHMMNPFHDLEPGPNVPEVVYALIEIPKGSRNKYELDKETGLLKLDRVLYTPFHYPVDYGIIPRTWYEDGDPFDIMVIMREPTYPLTIIEARPIGLFKMIDSGDKDYKVLAVPVEDPYFKDWKDISDVPKAFLDEIAHFFKRYKELEGKEIIVEGWEGAEAAKREILRAIEMYKEKFGKKE	soluble
MARVAIVGTGPTGIYTFFNLIQTDPSHHITLFERGEKAGIGLPYSPEAASKSMLANIASIEIPPIEATYLDWLKGQPDAKLRAYGLDRAELDDRQFTPRLLLGEYFRDQLLSLLDRHRARTEVLETTEVTDVIARNDALFLRAAEREFGPFDRVILATGHVFPDADEATRSYFPSPWSGLIQAEVPPVSVGIMGTSLSSIDAAMAVANQHGRFRRHGEELTFEPATEGLHLTLMSWSGVLPEADFWCPIPYEPLQVMTDDAVAQCAAQADPLDRVFALLQEEIAQADPAYADRIGLATLTADTFGDAYFAAREAQDPFRWARRNLEEVEHNKAHQITVPWRYALLRMHEKVETLVPHLGDADRKRFDGGLKKVFVDNYAAVPSESIRRLLALRDAGLLSVLALGEDYELKREPDRTVIHAKGKTHVFPVFIDARGQKPMESRDMPFPSLRRALMGSKQDIPELDADFALVGVPDYDRHAHLAAIPYLMHDRPFVQGITASAEIGATIARGISQAVGDRAAQGGRRSSAPVVATGLEHHHHHH	soluble
AHHHHHHGSRVVKKIGLIGGMTPESTCYYYRKYIEISRKKFRKYEYPELLIYSINFRDFFMNPEGWEGRKRILINAAKALERAGAELIALTANTPHIVFDDIQKEISVPMVSIIDAVAEEILSHGLKKVLLLETKTTMSSGFYVNALKNKGLEVVVPNEEEQEELNRIIFEELAFENLKSKRWIIDLIERYAKEEGVEGVILGCTELPLAVKRGDVSIEVFDSAEIHIKKLIEVASQSI	not soluble
